Reference: PMC3237458, “PEGylation Potentiates the Effectiveness of an Antagonistic Peptide That Targets the EphB4 Receptor with Nanomolar Affinity” (PLoS ONE, 2011)
Several values for one entry are separate records, joined by “and”; a condition that tells them apart may be missing. Equal values may be shown once. Entries after “also recorded” stand apart in the source; their conditions may differ. Ends that are not written are not given here.

Tests used:
[1] = Peptide stability in cell culture medium / conditioned medium (ELISA of functional peptide); format: in vitro ADME; conditions: up to 48 hours; 25 nM peptide; medium diluted 1:10; functional peptide by ELISA; 6–9 measurements; Figure 3A
Description: PC3 prostate cancer cells were grown in RPMI 1640 medium (Mediatech, Inc, Herndon, VA) with 10% fetal bovine serum (FBS) (Hyclone, Logan, UT), penicillin and streptomycin. B16-F10-luc-G5 melanoma cells (Caliper Life Sciences, Hopkinton, MA) were grown in Eagle's MEM with Earle's Balanced Salts (EBSS) (Hyclone, Logan, UT) supplemented with 10% FBS, non essential amino acids (Hyclone, Logan, UT), L-glutamine, sodium pyruvate (Hyclone, Logan, UT), MEM vitamin solution (Life Technologies-Invitrogen), penicillin and streptomycin (Omega Scientific, Tarzana, CA). HUVECs (Cascade Biologics, Portland, OG) were grown in Medium 200 supplemented with low serum growth supplements (Cascade Biologics), 10% FBS, penicillin and streptomycin, and fungizone (Omega Scientific, Tarzana, CA). Rat EMCs were grown in DMEM (Mediatech, Inc, Herndon, VA) supplemented with 10% FBS, penicillin and streptomycin. The different modified forms of TNYL-RAW at a concentration of 25 nM were added to fresh medium or culture medium conditioned by the cells for 1–4 days. The culture medium was collected after different time periods and diluted 1∶10 in ELISA wells. The amount of intact TNYL-RAW peptide remaining was measured by using the ELISA assays described above for measurement of binding affinity. In some experiments, the peptide was incubated at 37°C with PC3 cell conditioned medium collected from the cells in the absence or in the presence of protease inhibitors (10 µg/ml aprotinin, 5 µg/ml pepstatin, 10 µg/ml leupeptin and 0.75 mM or phenylmethylsulfonylfluoride (PMSF)).

[2] = Peptide stability in mouse serum ex vivo; format: in vitro ADME; conditions: undiluted mouse serum, 37°C, functional peptide by ELISA; Figures 1E, 3B
[3] = Peptide retention in mouse blood circulation; format: in vivo; conditions: C57BL/6 mice, intravenous, serum ELISA, 3 mice, Figure 3C; for Circulation half-life (t1/2): 2.1 nmoles TNYL-RAW-Fc, 1.5 nmoles TNYL-RAW-streptavidin, 6 nmoles PEG-TNYL-RAW, non linear regression; for AUC: % of the injected dose•hours/ml
Description: 2.1 nmoles TNYL-RAW-Fc, 1.5 nmoles TNYL-RAW-streptavidin and 6 nmoles PEG-TNYL-RAW, diluted in 150 µl sterile PBS, were administered to C57BL/6 mice by intravenous or intraperitoneal injection. Blood was collected from each mouse from the orbital sinus at two time points after injection and by cardiac puncture under Avertin anesthesia at a third time point. These experiments were carried out in accordance with the recommendations in the Guide for the Care and Use of Laboratory Animals of the National Institutes of Health. The protocol was approved by the Institutional Animal Care and Use Committee of the Sanford-Burnham Medical Research Institute (Animal Assurance Number: A-3053-1). After collection, the blood was […], and the serum was stored at −20°C. The different forms of TNYL-RAW in the serum were detected by using the same ELISA assays described above for measurements of binding affinity. The absorbance from wells incubated with mouse serum without TNYL-RAW was subtracted as the background and the concentration of TNYL-RAW in the blood was calculated based on a standard curve generated using serum containing known TNYL-RAW concentrations. The half-life of each peptide was estimated by using non linear regression and the program Prism (GraphPad Software Inc.). The area under the curve (AUC) was expressed as % ID•hours/ml (where ID is the initial dose of peptide injected) and calculated by dividing the AUC value obtained using the program Prism by the amount of injected peptide and multiplying by 100.

[4] = biological target: T1, EphB4 (Homo sapiens, UniProt P54760); assay: EphB4 activation by multimeric peptide forms (unpublished data); format: cell-based
T1 sequence (P54760 16-987): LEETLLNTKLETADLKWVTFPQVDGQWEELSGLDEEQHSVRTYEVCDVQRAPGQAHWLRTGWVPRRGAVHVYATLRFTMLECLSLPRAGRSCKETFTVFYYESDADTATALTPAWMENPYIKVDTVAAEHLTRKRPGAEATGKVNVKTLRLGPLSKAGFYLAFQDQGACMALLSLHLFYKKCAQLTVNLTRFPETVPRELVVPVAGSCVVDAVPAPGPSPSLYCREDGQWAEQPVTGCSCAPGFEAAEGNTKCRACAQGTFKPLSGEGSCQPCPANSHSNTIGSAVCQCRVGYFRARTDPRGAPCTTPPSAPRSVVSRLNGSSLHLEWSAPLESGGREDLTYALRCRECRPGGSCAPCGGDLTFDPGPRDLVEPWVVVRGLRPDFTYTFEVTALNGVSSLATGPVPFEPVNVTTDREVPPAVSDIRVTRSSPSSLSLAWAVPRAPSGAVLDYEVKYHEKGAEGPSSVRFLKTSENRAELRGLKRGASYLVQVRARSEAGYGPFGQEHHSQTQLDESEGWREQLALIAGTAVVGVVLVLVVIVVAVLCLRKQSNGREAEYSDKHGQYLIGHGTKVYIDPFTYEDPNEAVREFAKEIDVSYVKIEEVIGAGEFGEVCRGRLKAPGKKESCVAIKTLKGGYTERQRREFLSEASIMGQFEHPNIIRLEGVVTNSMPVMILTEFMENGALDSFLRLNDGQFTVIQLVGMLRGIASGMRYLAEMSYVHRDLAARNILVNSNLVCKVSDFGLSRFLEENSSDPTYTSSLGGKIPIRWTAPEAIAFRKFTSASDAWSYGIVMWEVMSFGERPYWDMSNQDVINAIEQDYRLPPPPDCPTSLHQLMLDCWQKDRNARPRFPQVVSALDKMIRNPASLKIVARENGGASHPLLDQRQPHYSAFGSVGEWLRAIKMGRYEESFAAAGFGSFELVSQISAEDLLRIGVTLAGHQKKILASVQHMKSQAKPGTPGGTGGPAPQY

Substance	Degradation in PC3 cell conditioned medium [1]	Stability in mouse serum ex vivo [2]	Circulation half-life (t1/2) [3]	AUC [3]	Activation of EphB4 [4]
TNYL-RAW-streptavidin: biotinylated TNYL-RAW in complex with streptavidin at molar ratio 4:1	absence of peptide degradation	much decreased degradation	~1 h and 1.3 h	110 % ID-h/ml	unable to detectably activate EphB4
TNYL-RAW-Fc: TNYL-RAW fused through a GSGSK linker to the Fc portion of human IgG1, from HEK 293 cells (TNYLFSPNGPIARAWGSGSK-{Fc (human IgG1)}; also: dimer)	absence of peptide degradation	much decreased degradation; also recorded: not as stable in mouse serum as the streptavidin-bound or PEGylated peptide	~1 h and 0.8 h	140 % ID-h/ml	unable to detectably activate EphB4
